Experimental data published in paper PMC4552939, “Structural Analysis of the Regulatory Domain of ExsA, a Key Transcriptional Regulator of the Type Three Secretion System in Pseudomonas aeruginosa” (PLoS ONE, 2015).

Assays:
[1] = target: ExsA-L117R (Pseudomonas aeruginosa) (UniProt P26993)
[2] = target: the molecule itself; assay: crystal structure; hanging-drop vapor diffusion at 25°C; 1.6M MgSO4, 0.1M MES pH 6.5, 0.1M EGTA; dimers A/A' and B/B'' made by crystallographic two-fold axes

In the case of “ExsA-L117R (from UniProt P26993 1-278) (natural protein)”, the activation of transcription in vitro at 16, 32 and 64 nM protein, against wild-type ExsA [1] is reported as 10 fold.

B1: ExsA amino-terminal domain (ExsA-NTD), amino acids 2-178 (domain or fragment)
chain: QGAKSLGRKQITSCHWNIPTFEYRVNKEEGVYVLLEGELTVQDIDSTFCLAPGELLFVRRGSYVVSTKGKDSRILWIPLSAQFLQGFVQRFGALLSEVERCDEPVPGIIAFAATPLLAGCVKGLKELLVHEHPPMLACLKIEELLMLFAFSPQGPLLMSVLRQLSNRHVERLQLFME
notes: thermolysin product, amino acids 2-178 by LC-MS; A selenomethionine-substituted sample was also made (E. coli BL21(DE3), minimal medium), crystallised under identical conditions and used for phasing; Residues 2-10 and 166-178 (chain A) and 2-9 and 167-178 (chain B) gave no density; also called regulatory domain of ExsA; ExsA N-terminal domain protein; source: E. coli BL21(DE3) CodonPlus RIL, …
B1: binds [2].
